Among the data in patent publication US20050186649 (published 2005) are Kd and Ki values, retold here.

B1: human plasmin (protein)
chain: KVYLSECKTGNGKNYRGTMSKTKNGITCQKWSSTSPHRPRFSPATHPSEGLEENYCRNPDNDPQGPWCYTTDPEKRYDYCDILECEEECMHCSGENYDGKISKTMSGLECQAWDSQSPHAHGYIPSKFPNKNLKKNYCRNPDRELRPWCFTTDPNKRWELCDIPRCTTPPPSSGPTYQCLKGTGENYRGNVAVTVSGHTCQHWSAQTPHTHNRTPENFPCKNLDENYCRNPDGKRAPWCHTTNSQVRWEYCKIPSCDSSPVSTEQLAPTAPPELTPVVQDCYHGDGQSYRGTSSTTTTGKKCQSWSSMTPHRHQKTPENYPNAGLTMNYCRNPDADKGPWCFTTDPSVRWEYCNLKKCSGTEASVVAPPPVVLLPDVETPSEEDCMFGNGKGYRGKRATTVTGTPCQDWAAQEPHRHSIFTPETNPRAGLEKNYCRNPDGDVGGPWCYTTNPRKLYDYCDVPQCAAPSFDCGKPQVEPKKCPGRVVGGCVAHPHSWPWQVSLRTRFGMHFCGGTLISPEWVLTAAHCLEKSPRPSSYKVILGAHQEVNLEPHVQEIEVSRLFLEPTRKDIALLKLSSPAVITDKVIPACLPSPNYVVADRTECFITGWGETQGTFGAGLLKEAQLPVIENKVCNRYEFLNGRVQSTELCAGHLAGGTDSCQGDSGGPLVCFEKDKYILQGVTSWGLGCARPNKPGVYVRVSRFVTWIEGVMRNN
B2: SPI11 (protein)
chain: MHSFCAFKAETGPCRARFDRWFFNIFTRQCEEFIYGGCEGNQNRFESLEECKKMCTRD
B3: SPI47 (protein)
chain: MHSFCAFKADAGPCRAKFERFFFNIFTRQCEEFIYGGCEGNQNRFESLEECKKMCTRD
B4: SPI54 (protein)
chain: MHSFCAFKADSGPCRARFDRWFFNIFTRQCTRFPYGGCGGNQNRFESLEECKKMCTRD
B5: SPI23 (protein)
chain: MHSFCAFKAEGGPCRAKFQRWFFNIFTRQCEEFIYGGCEGNQNRFESLEECKKMCTRD
B6: SPI22 (protein)
chain: MHSFCAFKADGGPCKGKFPRFFFNIFTRQCEEFIYGGCEGNQNRFESLEECKKMCTRD
B7: SPI43 (protein)
chain: MHSFCAFKAETGPCRGKFDRWFFNIFTRQCESFHYGGCKGNQNRFESLEECKKMCTRD
B8: QS4 (protein)
chain: MHSFCAFKADDGPCKARFERFFFNIFTRQCEQFYYGGCDGNQNRFESLEECKKMCTRD
B9: SPI51 (protein)
chain: MHSFCAFKADAGPCRAKFERFFFNIFTRQCTAFFYGGCGGNQNRFESLEECKKMCTRD

The target in the first assay is BPTI (Bos taurus).
What is called Kd is the free concentration of one partner at which half of the binding sites on the other are occupied at equilibrium, for simple one-to-one binding. Read a low Kd as higher affinity. The molecule B1 gave an equilibrium dissociation constant (Kd) of 0.3 nM.

The target of the next assay is B1.
In turn, B2 had a Kd of 0.088 nM. Same read-out and setting: with B3 the figure was approximately 0.8 nM.

The molecule B4 showed a Kd of more than 4 nM. The same measure, in the same setting: under B5 stands approximately 0.5 nM; under B6, more than 2 nM; under B7, more than 4 nM.

In turn, B8 yielded a Kd of 2 nM. This counts as single-digit nanomolar.

B9 returned a Kd of approximately 0.5 nM.

The target in the next assay is B1. The source holds these as a separate data set.
For orientation: Ki means the dissociation constant of the complex between target and ligand, obtained from inhibition or displacement. As for B2, the Ki was 0.088 nM.
